Assay results as given in PMC6726451 (Science Advances, 2019).

Assays:
SEC-MALS = biological target: the molecule itself; experiment: SEC-MALS
SEC = biological target: the molecule itself; experiment: SEC

B1: caseinolytic protease ClpP from Thermus thermophilus (TtClpP) (enzyme)
chain: not shown
stoichiometry N (SEC-MALS): 14 | stoichiometry N (SEC): 7
